The assay has as its target T1, 食蟹猴VISTA-Fc (cynomolgus monkey, UniProt A0A7N9IB00 33-194).
T1 construct: Bought reagent; also called VISTA-Fc(食蟹猴，Sino biological Inc); not shown: Fc part
T1 sequence: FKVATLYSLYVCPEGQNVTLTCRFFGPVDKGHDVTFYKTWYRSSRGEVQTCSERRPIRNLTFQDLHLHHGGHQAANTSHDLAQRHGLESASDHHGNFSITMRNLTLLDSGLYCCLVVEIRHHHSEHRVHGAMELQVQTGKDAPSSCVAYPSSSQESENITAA
Nature of the assay: ELISA on coated VISTA-Fc, anti-human kappa-HRP detection.

B1: 阳性参照抗体VSTB112 (antibody, V domains shown)
VH: QVQLVQSGAEVKKPGSSVKVSCKASGGTFSSYAISWVRQAPGQGLEWMGGIIPIFGTANYAQKFQGRVTITADESTSTAYMELSSLRSEDTAVYYCARSSYGWSYEFDYWGQGTLVTVSS
VL: DIQMTQSPSSLSASVGDRVTITCRASQSIDTRLNWYQQKPGKAPKLLIYSASSLQSGVPSRFSGSGSGTDFTLTISSLQPEDFATYYCQQSAYNPITFGQGTKVEIKR
In turn, B1 came in with an EC50 of 0.065 µg/mL.

The EC50 is the midpoint of the concentration-response curve. The low end stands for a more potent agent, the high end for a less potent agent.

The record behind these values is patent CN115141278A (BIO THERA SOLUTIONS LTD, dated 2022).
